B1: C. elegans APE-1 (sole ASPP homolog), endogenous, tagged with GFP and 3xflag [C. elegans] / C. elegans GSP-2 (PP1 homolog), endogenously HaloTagged [modified: JF646 dye on the HaloTag (single-molecule assay); JFX646 dye on the … (parent)
chain 1: MVTTSSGGGIGYPANNGVTQVSLIHSSDSVRTVSTAPIYRPTSSMASTMAHKSSTAPFISANQRMSKPPVRVVAQPPPPHPQALSQQYHQQNPMMMYSAPNTRPHVIPTMQVQPTMAAQIKRNNPVNAQFQNPSEMIADYGVKPQSVEMVQRVRAVRRQVADEETELRRLRELEHETAQLQNKNYGRERELNVQGSMLKEAQLELRNASMRAQSLNKHLEEMYRRRQTAAAAALVEQRKMQQHQILLARAANQVSTQEVIRPRASVEPFQVNNTQQQQPSPQMMKSEEFSEKRDLNGQTGSYDAIDGSGDHQKIPTEPSYLAPCKENQQKYSELSKMASTDPHSNHSSPSTSSQKAPTLITFSPPSFEQKINSSTMTRDSPFVERPTSFGDSLDESRLRSGKTDLVSLRSDSLKATKRRSWAASEGTSMSEAEMIHRLLDEQRRGRSHFIPQLPTSQEEPSAITSETYAEEVVNSESKQVATSSDSTNNLELPTEQMVLGSDTTTEEDASSCSTRSDDGQNLEMEVAIERRTVKGILRRPNEKMNKGRIEFDPLALLLDAALEGELDLVRSSASKLTDVSQANDEGITALHNAICAGHYEIVRFLIENDADVNAQDSDGWTPLHCAASCNNLPMVRQLVEGGGCVLASTLSDMETPVEKCEEDEDGYDGCLKYLSAAHNSTGSINTGKVYAAYGYEAAFEDELSFDAGDELTVIEKDKVDKNWWTCEKNNGEKGQVPRTYLALYPSLKYRKKLNFVMFDLPLESNNNVE
chain 2: MDVEKLNLDNIISRLLEVRGSKPGKNVQLTESEIKGLCQKSREIFLSQPILLELEAPLKICGDVHGQYYDLLRLFEYGGFPPESNYLFLGDYVDRGKQSLETICLLLAYKIKYPENFFLLRGNHECASINRIYGFYDECKRRYNIKLWKTFTDCFNCLPVAAIIDEKIFCCHGGLSPDLQSMEQIRRIMRPTDVPDQGLLCDLLWSDPDKDVTGWGENDRGVSFTFGPEVVAKFLHKHDLDLICRAHQVVEDGYEFFAKRQLVTLFSAPNYCGEFDNAGSMMTVDETLMCSFQILKPADKKKYPYGAGGVGSNRPVTPPRNAPAAQPKKGAKK

The variants in test [1] derive from B1. In words: single-molecule photobleaching analysis by TIRF microscopy. As to conditions: with C. elegans GSP-2 (PP1 homolog).
Test [2] covers variants of B1. In words: MudPIT analysis of 3xflag immunoprecipitations from whole-worm lysates. As to conditions: with C. elegans GSP-2 (PP1 homolog) in whole-worm lysates of the MudPIT experiment [C. elegans (endogenous in whole worms)]; for response (% of total protein): parent: 10.8; for screen value: parent: 20.

As to chain 1 N583K, the screen value is 34% in test [1] (p = 0.008 vs APE-1, read off a plot) and 4 in test [2]. For the same variant, the response (% of total protein) in test [2] (bait recovered in same sample: 0.22 % of total protein (wild-type bait 0.54)) came out at 0.87.
Regarding chain 1 H591Y, the screen value is 37% in test [1] (p=0.531 vs APE-1, read off a plot) and 7 in test [2]. The response (% of total protein) in test [2] (bait recovered in same sample: 0.12 % of total protein (wild-type bait 0.54)) was 0.87.
